Data reported in article PMC7660911.
Values joined by “and” are separate entries in the source; they are usually repeats but may differ in a detail not shown here. Equal entries are not always repeated.

Target: pVHL172-BirA(R118G)-HA fusion protein (human) (UniProt P40337)
Assay: proximity labelling; BioID with truncated VHL-BirA constructs in HeLa and 786-O cells; blots quantified as biotinylated prefoldin / pVHL expression level, full-length VHL213-BirA set as 1 (Fig 1C)

| fold lower binding than with the exons 2&3 version | Substance |
| --- | --- |
| 4 fold and 5 fold | Prefoldin subunit 1 (from UniProt O60925 1-122) (natural protein) |
| 4 fold and 5 fold | Prefoldin subunit 3 (from UniProt P61758-1 1-197) (natural protein) |
